Measurements published in US20240010680A1 (XIAMEN UNIVERSITY, published 2024).

Molecular target: T1, hACE2 purified protein (human (printed as hACE2), UniProt Q9BYF1 18-740)
T1 construct: also called CM5-hACE2 chip
Test: SPR (Biacore T200), hACE2 amine-coupled to CM5 chip, peptide as analyte
Protocol: Specific Steps: [0031] a. The GE Biacore T200 is started, the Series S Sensor Chip CM5 is embedded into the GE Biacore T200, the PBS is degassed to obtain a degassed PBS, and the degassed PBS is used throughout the experiment; [0032] b. The NHS, the EDC, the ethanolamine, and the hACE2 (1 mg/mL) are placed on a feeding plate of the GE Biacore T200 according to volumes indicated by the GE Biacore T200 using Eppendorf (EP) tubes in sufficient quantities; [0033] c. […] A mobile solution (the degassed PBS) is closed, a command window is closed, and a report is served to obtain a CM5-hACE2 chip;
Specific Steps: [0038] a. Preparing different dilutions as samples for testing: the peptides in Table 1 to be tested at a concentration of 3 mmol/L (mM) are dissolved and sequentially diluted into different dilutions of 100 μmol/L (μM), 60 μM, 30 μM, 10 μM, 3 μM, 1 μM, 0.3 μM, and 0 using the PBS to obtain the samples. Each of the different dilutions is ensured to have a volume of no less than 400 μL and separately packaged on EP tubes. The samples are placed on a test plate of the GE Biacore T200, and the test plate is stuck in a test slot; [0039] b.

T1 sequence (Q9BYF1 18-740 limits assumed): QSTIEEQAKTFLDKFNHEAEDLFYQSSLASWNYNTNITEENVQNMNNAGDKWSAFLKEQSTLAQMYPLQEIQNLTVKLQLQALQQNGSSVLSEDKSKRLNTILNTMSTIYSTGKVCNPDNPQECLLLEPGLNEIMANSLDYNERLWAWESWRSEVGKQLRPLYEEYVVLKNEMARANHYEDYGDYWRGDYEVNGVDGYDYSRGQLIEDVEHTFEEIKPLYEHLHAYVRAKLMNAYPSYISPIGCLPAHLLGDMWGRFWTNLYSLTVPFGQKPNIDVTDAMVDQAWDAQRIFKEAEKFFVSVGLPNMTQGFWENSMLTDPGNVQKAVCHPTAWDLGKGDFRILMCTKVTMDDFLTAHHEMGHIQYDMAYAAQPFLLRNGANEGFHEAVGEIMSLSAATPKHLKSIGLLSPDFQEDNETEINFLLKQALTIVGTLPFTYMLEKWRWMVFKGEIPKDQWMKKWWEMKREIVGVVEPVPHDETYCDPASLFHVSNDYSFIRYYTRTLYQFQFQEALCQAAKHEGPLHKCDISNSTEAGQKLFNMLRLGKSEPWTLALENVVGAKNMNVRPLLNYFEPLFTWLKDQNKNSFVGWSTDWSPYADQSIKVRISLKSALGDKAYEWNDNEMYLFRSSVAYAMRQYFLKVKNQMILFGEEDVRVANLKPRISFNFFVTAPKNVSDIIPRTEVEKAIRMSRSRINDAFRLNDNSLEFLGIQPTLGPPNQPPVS

In order of falling Kd:
1. YTYIQK (also called YTYIQK) [Peptide23]  46.5 µM
2. YSYIQK (also called YSYIQK; third peptide) [Peptide21]  36.8 µM
3. YRYRYL (also called YRYRYL; second peptide) [Peptide13]  25.3 µM
4. YKYKYL (also called YKYKYL; first peptide) [Peptide12]  21.4 µM
